# Results published in publication PMC8376421.
# Molecular target: recombinant hACE2-AviTag protein (human) (UniProt Q9BYF1)
# Assay: SPR
# UniProt Q9BYF1, sequence (Q9BYF1 18-740): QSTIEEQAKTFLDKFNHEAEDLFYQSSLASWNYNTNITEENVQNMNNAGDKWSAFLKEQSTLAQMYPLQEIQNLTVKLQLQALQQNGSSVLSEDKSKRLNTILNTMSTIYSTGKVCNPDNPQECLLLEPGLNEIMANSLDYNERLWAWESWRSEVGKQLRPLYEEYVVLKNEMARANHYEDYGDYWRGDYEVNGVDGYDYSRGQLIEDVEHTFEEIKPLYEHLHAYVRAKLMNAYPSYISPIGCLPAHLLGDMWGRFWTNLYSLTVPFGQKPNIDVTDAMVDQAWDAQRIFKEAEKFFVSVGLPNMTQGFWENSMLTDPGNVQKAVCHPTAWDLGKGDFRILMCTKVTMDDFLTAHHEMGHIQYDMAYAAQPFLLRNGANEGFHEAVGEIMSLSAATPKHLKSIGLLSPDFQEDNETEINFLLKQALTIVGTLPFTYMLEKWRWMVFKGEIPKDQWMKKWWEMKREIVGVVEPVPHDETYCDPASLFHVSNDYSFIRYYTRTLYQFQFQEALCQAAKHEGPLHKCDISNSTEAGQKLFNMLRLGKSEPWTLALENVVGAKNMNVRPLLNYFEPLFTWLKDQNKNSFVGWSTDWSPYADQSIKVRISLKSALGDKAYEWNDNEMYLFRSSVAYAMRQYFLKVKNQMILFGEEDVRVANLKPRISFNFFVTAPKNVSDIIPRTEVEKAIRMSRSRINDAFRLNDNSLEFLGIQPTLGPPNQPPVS
substance,measurement,value
SARS-CoV-2 spike RBD-MBP fusion protein (domain or fragment),Kd,0.019 µM
